B1: LIS1, wild type, as used in mass photometry (construct not told) [human] / human Ndel1 coiled-coil domain (Ndel1^CC, residues 1-195) [human] (parent)
chain 1: MVLSQRQRDELNRAIADYLRSNGYEEAYSVFKKEAELDVNEELDKKYAGLLEKKWTSVIRLQKKVMELESKLNEAKEEFTSGGPLGQKRDPKEWIPRPPEKYALSGHRSPVTRVIFHPVFSVMVSASEDATIKVWDYETGDFERTLKGHTDSVQDISFDHSGKLLASCSADMTIKLWDFQGFECIRTMHGHDHNVSSVAIMPNGDHIVSASRDKTIKMWEVQTGYCVKTFTGHREWVRMVRPNQDGTLIASCSNDQTVRVWVVATKECKAELREHEHVVECISWAPESSYSSISEATGSETKKSGKPGPFLLSGSRDKTIKMWDVSTGMCLMTLVGHDNWVRGVLFHSGGKFILSCADDKTLRVWDYKNKRCMKTLNAHEHFVTSLDFHKTAPYVVTGSVDQTVKVWECR
chain 2: MDGEDIPDFSSLKEETAYWKELSLKYKQSFQEARDELVEFQEGSRELEAELEAQLVQAEQRNRDLQADNQRLKYEVEALKEKLEHQYAQSYKQVSVLEDDLSQTRAIKEQLHKYVRELEQANDDLERAKRATIVSLEDFEQRLNQAIERNAFLESELDEKESLLVSVQRLKDEARDLRQELAVRERQQEVTRKSA
B2: full-length yeast Pac1 with C-terminal FLAG-SNAPf [S. cerevisiae] / yeast Ndl1 coiled-coil domain (Ndl1^CC, residues 2-132) [S. cerevisiae] (parent)
chain 1: MTNWQQQLPLTDTQKNELDKSVLRYLNWNYKQTVRHEHAQDYESVRHAIVTLSGFLLQESVDRQEFISNNDTSNESMVDIDELLLPKKWNSIVRLQKKIIELEQNTETLVSQIKDLNTQVSELAQFKPTTSNGTSAHNVLKWIPRNLPSCLINVESSVTSVKLHPNLPIVFVATDHGKLYAFDLFNYTIPLASLQSHTKAITSMDVLFTNYTNSSKKNYLVIVTASKDLQIHVFKWVSEECKFQQIRSLLGHEHIVSAVKIWQKNNDVHIASCSRDQTVKIWDFHNGWSLKTFQPHSQWVRSIDVLGDYIISGSHDTTLRLTHWPSGNGLSVGTGHEFPIEKVKFIHFIEDSPEIRFRTPSTDRYKNWGMQYCVSASRDRTIKIWEIPLPTLMAHRAPIPNPTDSNFRCVLTLKGHLSWVRDISIRGQYLFSCADDKSVRCWDLNTGQCLHVWEKLHTGFVNCLDLDVDFDSNVTPRQMMVTGGLDCKSNVFMR
chain 2: VPNLDLETAIQIISSLETQLSELEGATKEYENDLEQVISKLKSDLLESQQQNKCNKKQITDLEIQVDELENENIQLRNKIETLQLESDRRLERNVLLEHELLDTKEALQKLRVSKEEATSGETRRNTRSLP

The variants in one assay derive from B1. The assay can be described thus: mass photometry. The note with it: with human Ndel1 coiled-coil domain (Ndel1^CC, residues 1-195) [human]; Proteins mixed at a 1:1 molar ratio.
Turning to chain 1 R316A, the screen value came out at 5%.
Same read-out and setting: the value for chain 1 W340A was 0%.

Another assay covers variants of B2. The assay can be described thus: mass photometry. The note with it: with yeast Ndl1 coiled-coil domain (Ndl1^CC, residues 2-132) [S. cerevisiae]; Proteins mixed at a 1:1 molar ratio.
As to chain 1 R275A R301A R378A W419A K437A, the screen value amounted to 0%.

For the origin of these results see article PMC10511499.
